Measured values from US20120064106A1.

Target: TLR5 on RAW 424 (TLR5+) cells
Experiment: cell-based or functional assay

Substance	TNF-α production by RAW 424 (TLR5+) cells, half-maximal stimulation [pM]
P. aeruginosa type A flagellin (strain PAK), recombinant full-length (from UniProt P21184 2-394) (ligand)	16
P. aeruginosa type B flagellin (strain PAO1), recombinant full-length (from UniProt P72151 1-488) (ligand)	4e+07
